From PMC8432889

Target: β-PIX (endogenous, Hap1 cells) (human (endogenous in Hap1)) (UniProt Q14155)
Sequence of UniProt Q14155 (Q14155 whole entry): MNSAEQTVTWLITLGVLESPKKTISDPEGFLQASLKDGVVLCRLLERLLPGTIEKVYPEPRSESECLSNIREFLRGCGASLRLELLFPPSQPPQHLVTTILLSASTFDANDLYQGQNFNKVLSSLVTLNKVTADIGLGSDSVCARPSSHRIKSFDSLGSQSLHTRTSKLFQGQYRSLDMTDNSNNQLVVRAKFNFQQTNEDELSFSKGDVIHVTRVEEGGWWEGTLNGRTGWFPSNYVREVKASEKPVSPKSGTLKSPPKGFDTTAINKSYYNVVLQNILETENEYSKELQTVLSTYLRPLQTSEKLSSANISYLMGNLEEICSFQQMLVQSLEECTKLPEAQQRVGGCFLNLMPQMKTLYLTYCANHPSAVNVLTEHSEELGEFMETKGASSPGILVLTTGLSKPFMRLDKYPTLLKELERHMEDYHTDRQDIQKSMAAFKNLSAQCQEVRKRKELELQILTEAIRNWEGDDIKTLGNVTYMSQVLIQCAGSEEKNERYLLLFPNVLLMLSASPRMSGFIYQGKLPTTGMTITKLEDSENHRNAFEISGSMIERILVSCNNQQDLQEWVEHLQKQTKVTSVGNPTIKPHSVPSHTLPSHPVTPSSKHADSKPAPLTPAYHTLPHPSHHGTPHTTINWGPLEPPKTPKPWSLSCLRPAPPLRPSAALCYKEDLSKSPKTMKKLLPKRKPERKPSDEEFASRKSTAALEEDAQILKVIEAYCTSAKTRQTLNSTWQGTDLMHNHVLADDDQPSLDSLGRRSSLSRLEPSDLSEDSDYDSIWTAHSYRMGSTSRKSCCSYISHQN

## Emerald-tagged PAK1, full length (from UniProt Q13153 1-545) (enzyme)
  Salmonella invasion into WT Hap1 cells treated with the inhibitor peptide PAK18 (PAK residues 187–203; 5 μM), percent impeded; negative control peptide had no effect: 55%
